Results from patent US5795718, “Detection of complementary nucleotide sequences” (Boehringer Mannheim Corporation).

Tests used:
[1] = biological target: T1, BamHI (UniProt P23940 P23940:1-213); assay: cleavage_in_vitro; complementation rate 47.16 to 114.07 mAU/min after BamHI; 37 C, 40 min; details: chain copies: 2; 24 bp duplex within circular ssDNA
T1 sequence: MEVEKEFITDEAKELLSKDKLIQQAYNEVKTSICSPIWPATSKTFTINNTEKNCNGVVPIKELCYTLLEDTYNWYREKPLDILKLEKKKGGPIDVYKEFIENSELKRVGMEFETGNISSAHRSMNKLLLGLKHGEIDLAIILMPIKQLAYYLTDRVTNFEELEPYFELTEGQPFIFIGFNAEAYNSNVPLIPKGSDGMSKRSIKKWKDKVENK
From the text: Complementation Activity of ED4-BP-1 Before and After Hybridization To Target Nucleic Acid In order to determine whether an ED-nucleic acid conjugate would be useful as a probe for the complementation activity detection of specific nucleic acid sequences, a conjugate was made of ED4 and BP-1. BP-1 is a single-stranded DNA oligonucleotide 24 bases long (SEQ ID NO:1, FIG. 2). The BP-1 sequence is complementary to the multiple cloning site region of the single-stranded DNA from the bacteriophage M13 mp18 (SEQ ID NO:2, FIG. 3). The viral DNA which is about 7250 bases in length was used as a model target nucleic acid. 2.4×10^-10 mol of ED4-BP-1 conjugate was incubated with and without 2.4×10^-9 mol of M13 mp18 DNA at 55° C. for 10 minutes. EA (20 U/test) and CPRG (2.0 mg/ml final) were then added and the mixture incubated at 37° C. for 4 minutes. The rate of increase in A$574$ was measured per minute between 4 and 6 minutes. The rates of complementation were 80.73 and 47.16 mAU/min without and with target M13 DNA mp18 DNA, respectively. Therefore complementation was reduced approximately 42% (FIG. 4) by hybridization with the target nucleic acid.
ED4-BP-1 was hybridized to M13 mp18 for 10 min at 55° C. […] The complementation efficiency of the ED4-BP-1/M13 mp18 complex before and after digestion with Bam HI was measured. The rate of increase in A574 was measured per minute as described above. […]

[2] = biological target: T2, Nuclease P1 (UniProt P24289 P24289:1-270); assay: cleavage_in_vitro; almost 5-fold complementation increase; 20 mM Na acetate pH 5.3, 4 mM Mg acetate, 37 C, 16.5 min; details: tags: Bethesda Research Laboratories
Protocol: ED4-$T20$ was incubated at 37° C. for 16.5 minutes with various amounts of nuclease, P1 (Bethesda Research Laboratories), in 20 mM Na acetate pH 5.3, 4 mM Mg acetate. At the end of the incubation period, EA and the substrate, CPRG, were added in 150 mM Na phosphate, pH 7.2, 400 mM NaCl, 10 mM EGTA, 0.05% Tween 20 and 10 mM methionine. The rate of product formation was measured at 574 nm in mAU/min. The results (FIG. 1) indicate that the complementation activity of ED4-$T20$ can be increased by digestion of the conjugate with nuclease. An almost 5-fold increase in activity is seen between the use of no nuclease and highest concentration […] conditions.

[3] = biological target: T2, Nuclease P1; assay: cleavage_in_vitro; 183.54 to 467.93 mAU/min after digestion; 20 mM Na acetate pH 5.3, 4 mM Mg acetate, 37 C; details: tags: Bethesda Research Laboratories

T2 sequence (P24289 whole entry, one chain of several): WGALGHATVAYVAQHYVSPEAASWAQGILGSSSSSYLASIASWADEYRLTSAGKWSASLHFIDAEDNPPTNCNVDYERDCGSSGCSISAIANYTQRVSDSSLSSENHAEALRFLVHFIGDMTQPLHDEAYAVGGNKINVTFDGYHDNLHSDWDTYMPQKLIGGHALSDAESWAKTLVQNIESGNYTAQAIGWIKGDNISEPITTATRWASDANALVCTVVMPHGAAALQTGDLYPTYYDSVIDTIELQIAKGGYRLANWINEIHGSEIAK

B1: ED4-BP-1/M13 mp18 hybrid (dsDNA)
DNA 1: GAGGATCCCCGGGTACCGAGCTCG
DNA 2: TGATTACGAATTCGAGCTCGGTACCCGGGGATCCTCTAGAGTCGA
modifications: 5' amine linker (3 or 6 carbons) SMCC-conjugated to ED4 peptide on BP-1
activity [1]: 2.4 fold

TTTTTTTTTTTTTTTTTTTT (ssDNA, 5' amine linker SMCC-conjugated to ED4 peptide) [ED4-T20]
activity [2]: ~5 fold

GAGGATCCCCGGGTACCGAGCTCG (ssDNA, 5' amine linker SMCC-conjugated to ED4 peptide) [ED4-BP-1]
activity [3]: ~2.5 fold
